{
  "source": "patent US20120090043A1",
  "about": "“TARGETS FOR RETROVIRUS ASSOCIATED DISEASES” (priority 2009, published 2012)",
  "data": [
    {"tested_on": "HIV-1 LTR promoter transactivation by HIV-1 Tat", "assay": "Transactivation assay, HIV-1 LTR luciferase reporter with HIV-1 Tat", "type": "cell-based", "conditions": "HEK293 cells co-transfected with pHIV1LTR-Luc, HIV-1 Tat and the human ORF; relative luciferase activity 24 h post-transfection; positive if >=2 or <=0.5 and p<0.05", "text": "The plasmids pHIV1LTR-Luc or pHTLV1LTR-Luc containing a luciferase reporter gene under the control of the HIV-1 or HTLV-1 LTR promoters and plasmids expressing either HIV-1 Tat or HTLV-1 Tax and each human ORF found to interact with viral proteins were transfected into 10^4 HEK293 cells using the calcium phosphate method. Twenty-four hours post-transfection, cells were washed three times with PBS, lysed and luciferase activities determined from two independent transfection experiments in triplicate. We computed a paired t-test to assess the difference of the means between samples with and without the human interactor. For a trial to be considered positive, the relative luciferase activities has to be >=2 or <=0.5, and the p-value of the t-test<0.05.\nMany HIV/HTLV-human interactions in our data set (130/212) involved the retroviral transactivator proteins HTLV-1 Tax (57/212), HTLV-2 Tax2 (49/212), HIV-1 Tat (10/212) and HIV-2 Tat (14/212). Human proteins interacting with viral transactivators likely influence Tat or Tax transactivation. Expression vectors encoding human ORFs and HIV-1 Tat or HTLV-1 Tax proteins were tested in a transactivation reporter assay against reporter plasmids harboring HIV-1 or HTLV-1 viral promoter sequences cloned upstream of the luciferase reporter gene. In the controls Tat or Tax respectively activated HIV or HTLV LTR-directed gene expression. Co-transfection of interacting human ORFs identified 71 proteins (54% of the 131 human targets in our data set) that regulated HIV (26.7% of targets), HTLV (37.4% of targets) or both (9.9% of targets) LTR promoter activation by Tat or Tax (see Tables 7 and 8; Table 13 below containing quantitative data on the regulation of transactivation). Wherever not expressly specified, constructs used herein were generally made by sub-cloning entry clones from the ORFeome V3.1 into suitable destination vectors.", "units": {"HIV_LTR transactiv.": "fold change"}, "values": [
      {"molecule": "NKAP: human host interactor protein, Gene ID 79576, expressed from transfected ORF vector (protein) MAPVSGSRSPDREASGSGGRRRSSSKSPKPSKSARSPRGRRSRSHSCSRSGDRNGLTHQLGGLSQGSRNQSYRSRSRSRSRERPSAPRGIPFASASSSVYYGSYSRPYGSDKPWPSLLDKEREESLRQKRLSERERIGELGAPEVWGLSPKNPEPDSDEHTPVEDEEPKKSTTSASTSEEEKKKKSSRSKERSKKRRKKKSSKRKHKKYSEDSDSDSDSETDSSDEDNKRRAKKAKKKEKKKKHRSKKYKKKRSKKSRKESSDSSSKESQEEFLENPWKDRTKAEEPSDLIGPEAPKTLTSQDDKPLNYGHALLPGEGAAMAEYVKAGKRIPRRGEIGLTSEEIASFECSGYVMSGSRHRRMEAVRLRKENQIYSADEKRALASFNQEERRKRENKILASFREMVYRKTKGKDDK", "HIV_LTR transactiv.": 2.68},
      {"molecule": "PDE9A: human host interactor protein, Gene ID 5152, expressed from transfected ORF vector (protein) MGSGSSSYRPKAIYLDIDGRIQKVIFSKYCNSSDIMDLFCIATGLPRNTTISLLTTDDAMVSIDPTMPANSERTPYKVRPVAIKQLSAGVEDKRTTSRGQSAERPLRDRRVVGLEQPRREGAFESGQVEPRPREPQGCYQEGQRIPPEREELIQSVLAQVAEQFSRAFKINELKAEVANHLAVLEKRVELEGLKVVEIEKCKSDIKKMREELAARSSRTNCPCKYSFLDNHKKLTPRRDVPTYPKYLLSPETIEALRKPTFDVWLWEPNEMLSCLEHMYHDLGLVRDFSINPVTLRRWLFCVHDNYRNNPFHNFRHCFCVAQMMYSMVWLCSLQEKFSQTDILILMTAAICHDLDHPGYNNTYQINARTELAVRYNDISPLENHHCAVAFQILAEPECNIFSNIPPDGFKQIRQGMITLILATDMARHAEIMDSFKEKMENFDYSNEEHMTLLKMILIKCCDISNEVRPMEVAEPWVDCLLEEYFMQSDREKSEGLPVAPFMDRDKVTKATAQIGFIKFVLIPMFETVTKLFPMVEEIMLQPLWESRDRYEELKRIDDAMKELQKKTDSLTSGATEKSRERSRDVKNSEGDCA", "HIV_LTR transactiv.": 0.28},
      {"molecule": "PIAS2: human host interactor protein, Gene ID 9063, expressed from transfected ORF vector (protein) MADFEELRNMVSSFRVSELQVLLGFAGRNKSGRKHDLLMRALHLLKSGCSPAVQIKIRELYRRRYPRTLEGLSDLSTIKSSVFSLDGGSSPVEPDLAVAGIHSLPSTSVTPHSPSSPVGSVLLQDTKPTFEMQQPSPPIPPVHPDVQLKNLPFYDVLDVLIKPTSLVQSSIQRFQEKFFIFALTPQQVREICISRDFLPGGRRDYTVQVQLRLCLAETSCPQEDNYPNSLCIKVNGKLFPLPGYAPPPKNGIEQKRPGRPLNITSLVRLSSAVPNQISISWASEIGKNYSMSVYLVRQLTSAMLLQRLKMKGIRNPDHSRALIKEKLTADPDSEIATTSLRVSLMCPLGKMRLTIPCRAVTCTHLQCFDAALYLQMNEKKPTWICPVCDKKAAYESLILDGLFMEILNDCSDVDEIKFQEDGSWCPMRPKKEAMKVSSQPCTKIESSSVLSKPCSVTVASEASKKKVDVIDLTIESSSDEEEDPPAKRKCIFMSETQSSPTKGVLMYQPSSVRVPSVTSVDPAAIPPSLTDYSVPFHHTPISSMSSDLPGLDFLSLIPVDPQYCPPMFLDSLTSPLTASSTSVTTTSSHESSTHVSSSSSRSETGVITSSGSNIPDIISLD", "HIV_LTR transactiv.": 0.42},
      {"molecule": "SF3A3: human host interactor protein, Gene ID 10946, expressed from transfected ORF vector (protein) METILEQQRRYHEEKERLMDVMAKEMLTKKSTLRDQINSDHRTRAMQDRYMEVSGNLRDLYDDKDGLRKEELNAISGPNEFAEFYNRLKQIKEFHRKHPNEICVPMSVEFEELLKARENPSEEAQNLVEFTDEEGYGRYLDLHDCYLKYINLKASEKLDYITYLSIFDQLFDIPKERKNAEYKRYLEMLLEYLQDYTDRVKPLQDQNELFGKIQAEFEKKWENGTFPGWPKETSSALTHAGAHLDLSAFSSWEELASLGLDRLKSALLALGLKCGGTLEERAQRLFSTKGKSLESLDTSLFAKNPKSKGTKRDTERNKDIAFLEAQIYEYVEILGEQRHLTHENVQRKQARTGEEREEEEEEQISESESEDEENEIIYNPKNLPLGWDGKPIPYWLYKLHGLNINYNCEICGNYTYRGPKAFQRHFAEWRHAHGMRCLGIPNTAHFANVTQIEDAVSLWAKLKLQKASERWQPDTEEEYEDSSGNVVNKKTYEDLKRQGLL", "HIV_LTR transactiv.": 0.49},
      {"molecule": "SP100: human host interactor protein, Gene ID 6672, expressed from transfected ORF vector (protein) MAGGGGDLSTRRLNECISPVANEMNHLPAHSHDLQRMFTEDQGVDDRLLYDIVFKHFKRNKVEISNAIKKTFPFLEGLRDRDLITNKMFEDSQDSCRNLVPVQRVVYNVLSELEKTFNLPVLEALFSDVNMQEYPDLIHIYKGFENVIHDKLPLQESEEEEREERSGLQLSLEQGTGENSFRSLTWPPSGSPSHAGTTPPENGLSEHPCETEQINAKRKDTTSDKDDSLGSQQTNEQCAQKAEPTESCEQIAVQVNNGDAGREMPCPLPCDEESPEAELHNHGIQINSCSVRLVDIKKEKPFSNSKVECQAQARTHHNQASDIIVISSEDSEGSTDVDEPLEVFISAPRSEPVINNDNPLESNDEKEGQEATCSRPQIVPEPMDFRKLSTFRESFKKRVIGQDHDFSESSEEEAPAEASSGALRSKHGEKAPMTSRSTSTWRIPSRKRRFSSSDFSDLSNGEELQETCSSSLRRGSGSQPQEPENKKCSCVMCFPKGVPRSQEARTESSQASDMMDTMDVENNSTLEKHSGKRRKKRRHRSKVNGLQRGRKKDRPRKHLTLNNKVQKKRWQQRGRKANTRPLKRRRKRGPRIPKDENINFKQSELPVTCGEVKGTLYKERFKQGTSKKCIQSEDKKWFTPREFEIEGDRGASKNWKLSIRCGGYTLKVLMENKFLPEPPSTRKKRILESHNNTLVDPCEEHKKKNPDASVKFSEFLKKCSETWKTIFAKEKGKFEDMAKADKAHYEREMKTYIPPKGEKKKKFKDPNAPKRPPLAFFLFCSEYRPKIKGEHPGLSIDDVVKKLAGMWNNTAAADKQFYEKKAAKLKEKYKKDIAAYRAKGKPNSAKKRVVKAEKSKKKKEEEEDEEDEQEEENEEDDDK", "HIV_LTR transactiv.": 3.69},
      {"molecule": "SPAG5: human host interactor protein, Gene ID 10615, expressed from transfected ORF vector (protein) MWRVKKLSLSLSPSPQTGKPSMRTPLRELTLQPGALTNSGKRSPACSSLTPSLCKLGLQEGSNNSSPVDFVNNKRTDLSSEHFSHSSKWLETCQHESDEQPLDPIPQISSTPKTSEEAVDPLGNYMVKTIVLVPSPLGQQQDMIFEARLDTMAETNSISLNGPLRTDDLVREEVAPCMGDRFSEVAAVSEKPIFQESPSHLLEESPPNPCSEQLHCSKESLSSRTEAVREDLVPSESNAFLPSSVLWLSPSTALAADFRVNHVDPEEEIVEHGAMEEREMRFPTHPKESETEDQALVSSVEDILSTCLTPNLVEMESQEAPGPAVEDVGRILGSDTESWMSPLAWLEKGVNTSVMLENLRQSLSLPSMLRDAAIGTTPFSTCSVGTWFTPSAPQEKSTNTSQTGLVGTKHSTSETEQLLCGRPPDLTALSRHDLEDNLLSSLVILEVLSRQLRDWKSQLAVPHPETQDSSTQTDTSHSGITNKLQHLKESHEMGQALQQARNVMQSWVLISKELISLLHLSLLHLEEDKTTVSQESRRAETLVCCCFDLLKKLRAKLQSLKAEREEARHREEMALRGKDAAEIVLEAFCAHASQRISQLEQDLASMREFRGLLKDAQTQLVGLHAKQEELVQQTVSLTSTLQQDWRSMQLDYTTWTALLSRSRQLTEKLTVKSQQALQERDVAIEEKQEVSRVLEQVSAQLEECKGQTEQLELENSRLATDLRAQLQILANMDSQLKELQSQHTHCAQDLAMKDELLCQLTQSNEEQAAQWQKEEMALKHMQAELQQQQAVLAKEVRDLKETLEFADQENQVAHLELGQVECQLKTTLEVLRERSLQCENLKDTVENLTAKLASTIADNQEQDLEKTRQYSQKLGLLTEQLQSLTLFLQTKLKEKTEQETLLLSTACPPTQEHPLPNDRTFLGSILTAVADEEPESTPVPLLGSDKSAFTRVASMVSLQPAETPGMEESLAEMSIMTTELQSLCSLLQESKEEAIRTLQRKICELQARLQAQEEQHQEVQKAKEADIEKLNQALCLRYKNEKELQEVIQQQNEKILEQIDKSGELISLREEVTHLTRSLRRAETETKVLQEALAGQLDSNCQPMATNWIQEKVWLSQEVDKLRVMFLEMKNEKEKLMIKFQSHRNILEENLRRSDKELEKLDDIVQHIYKTLLSIPEVVRGCKELQGLLEFLS", "HIV_LTR transactiv.": 0.16}
    ]}
  ]
}
